Drawing on US20120107932A1, “PRRS-VIRUS RECEPTOR AND ITS INHIBITOR” (priority 2009, published 2012), this text covers OD value (450 nm) and CPE caused by PRRSV on Marc-145 and PAM cells, blocker for two substances.

The target of experiment [1] is non-muscle myosin heavy chain II-A (NMHC II-A) protein. As to the kind of experiment: indirect ELISA, antigen coated 200 ng/well, serum dilution 10^-5; control of the anti-polypeptide (Seq ID No: 3) group.
For experiment [2], the target named is NMHC II-A artificial polypeptide (Seq ID No: 3). The description is as above.
For experiment [3] the target is unchanged. As to the kind of experiment: indirect ELISA, antigen coated 200 ng/well, serum dilution 10^-4; control of the anti-polypeptide (Seq ID No: 3) group. (In general: ELISA stands for enzyme-linked immunosorbent assay.)
The target in experiment [4] is non-muscle myosin heavy chain II-A (NMHC II-A) protein. As to the kind of experiment: indirect ELISA, antigen coated 200 ng/well, serum dilution 10^-5; control of the anti-polypeptide (Seq ID No: 2) group.
In experiment [5] the target is NMHC II-A artificial polypeptide (Seq ID No: 2). The description is as above.
Experiment [6] addresses non-muscle myosin heavy chain II-A (NMHC II-A) protein. The experiment is described as follows: indirect ELISA, antigen coated 200 ng/well, serum dilution 10^-3; control of the anti-polypeptide (Seq ID No: 3) group.
The target in experiment [7] is NMHC II-A artificial polypeptide (Seq ID No: 3). The description is as above.
Experiment [8] concerns the target non-muscle myosin heavy chain II-A (NMHC II-A) protein. The experiment is described as follows: indirect ELISA, antigen coated 200 ng/well, serum dilution 10^-3; control of the anti-polypeptide (Seq ID No: 4) group.
Experiment [9] has as its target NMHC II-A artificial polypeptide (Seq ID No: 4). The description is as above.
Experiment [10] concerns the target non-muscle myosin heavy chain II-A (NMHC II-A) protein. As to the kind of experiment: indirect ELISA, antigen coated 200 ng/well, serum dilution 10^-2; control of the anti-polypeptide (Seq ID No: 3) group.
Experiment [11] concerns the target NMHC II-A artificial polypeptide (Seq ID No: 3). The experiment is described as above.
Experiment [12] addresses non-muscle myosin heavy chain II-A (NMHC II-A) protein. As to the kind of experiment: indirect ELISA, antigen coated 200 ng/well, serum dilution 10^-2; control of the anti-polypeptide (Seq ID No: 2) group.
Experiment [13] addresses NMHC II-A artificial polypeptide (Seq ID No: 2). The experiment is described as above.
The target of experiment [14] is non-muscle myosin heavy chain II-A (NMHC II-A) protein. The experiment is described as follows: indirect ELISA, antigen coated 200 ng/well, serum dilution 10^-4; control of the anti-polypeptide (Seq ID No: 4) group.
Experiment [15] deals with NMHC II-A artificial polypeptide (Seq ID No: 4). Described as above.
For experiment [16], the target named is non-muscle myosin heavy chain II-A (NMHC II-A) protein. As to the kind of experiment: indirect ELISA, antigen coated 200 ng/well, serum dilution 10^-2; control of the anti-polypeptide (Seq ID No: 4) group.
Experiment [17] deals with NMHC II-A artificial polypeptide (Seq ID No: 4). The description is as above.
In experiment [18] the target is non-muscle myosin heavy chain II-A (NMHC II-A) protein. The experiment is described as follows: indirect ELISA, antigen coated 200 ng/well, serum dilution 10^-4; control of the anti-polypeptide (Seq ID No: 2) group.
In experiment [19] the target is NMHC II-A artificial polypeptide (Seq ID No: 2). The description is as above.
Experiment [20] addresses non-muscle myosin heavy chain II-A (NMHC II-A) protein. As to the kind of experiment: indirect ELISA, antigen coated 200 ng/well, serum dilution 10^-3; control of the anti-polypeptide (Seq ID No: 2) group.
The target in experiment [21] is NMHC II-A artificial polypeptide (Seq ID No: 2). The experiment is described as above.
The target in experiment [22] is non-muscle myosin heavy chain II-A (NMHC II-A) protein. The experiment is described as follows: indirect ELISA, antigen coated 200 ng/well, serum dilution 10^-5; control of the anti-polypeptide (Seq ID No: 4) group.
Experiment [23] deals with NMHC II-A artificial polypeptide (Seq ID No: 4). Described as above.
Another experiment has as its target PRRS virus (PRRSV). As to the kind of experiment: cell-based or functional assay.

In the case of “Negative control sera (mouse serum before immunization) (antibody)”, the OD value (450 nm) in experiment [1] turned out to be 0.07 OD; in [2], 0.08 OD; in experiment [3], 0.09 OD; in experiment [4] it was 0.08 OD; in experiment [5] it was 0.07 OD; in experiment [6] it was 0.11 OD. Moreover, the OD value (450 nm) was 0.13 OD in [7]; 0.11 OD in experiment [8]; 0.13 OD in experiment [9]; 0.12 OD in experiment [10]; 0.11 OD in experiment [11]; 0.13 OD in [12]. The OD value (450 nm) worked out at 0.12 OD in [13]; 0.08 OD in [14]; 0.1 OD in experiment [15]; 0.14 OD in experiment [16]; 0.15 OD in experiment [17]; 0.1 OD in experiment [18]. The OD value (450 nm) in [19] stood at 0.08 OD; in experiment [20], 0.1 OD; in [21], 0.11 OD; in [22] it was 0.07 OD; in [23] it was 0.09 OD.
As to “non-muscle myosin heavy chain II-A (NMHC II-A) protein (receptor)”, the CPE caused by PRRSV on Marc-145 and PAM cells, blocker at 1 µg/well ('+' means CPE in 25% cells) (% cells with CPE) with PRRS virus (PRRSV) is 25.
